Test results from patent US20200199576.

Sequence of p53, P04637 (P04637 whole entry, looked up): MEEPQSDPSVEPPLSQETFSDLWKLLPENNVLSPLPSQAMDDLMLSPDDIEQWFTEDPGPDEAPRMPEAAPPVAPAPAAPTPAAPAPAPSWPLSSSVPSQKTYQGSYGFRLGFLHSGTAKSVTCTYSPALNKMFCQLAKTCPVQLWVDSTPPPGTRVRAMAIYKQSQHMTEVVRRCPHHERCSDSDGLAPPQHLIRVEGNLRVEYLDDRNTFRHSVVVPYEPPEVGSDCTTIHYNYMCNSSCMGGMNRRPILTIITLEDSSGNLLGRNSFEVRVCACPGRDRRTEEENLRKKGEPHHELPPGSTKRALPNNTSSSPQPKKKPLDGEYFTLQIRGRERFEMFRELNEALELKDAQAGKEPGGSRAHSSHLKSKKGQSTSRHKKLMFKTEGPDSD

| Protein | p53 ubiquitination with xUB, Western blot (p53, P04637) | HECT auto-ubiquitination with wt UB, reducing gel (wt UbcH7 (human E2)) |
| --- | --- | --- |
| xCHIP (CHIP-KB2), C213K, G214D, K215P, S217M, F218H, E219T (protein) MKGKEEKEGGARLGAGGGSPEKSPSAQELKEQGNRLFVGRKYPEAAACYGRAIMQQHEQALADCRRALELDGQSVKAHFFLGQCQLEMESYDEAIANLQRAYSLAKEQRLNFGDDIPSALRIAKKKRWNSIEERRIHQESELHSYLSRLIAAERERELEECQRNHEGDEDDSHVRAQQACIEAKHDKYMADMDELFSQVDEKRKKRDIPDYLKDPIMHTLMREPCITPSGITYDRKDIEEHLQRVGHFDPVTRSPLTQEQLIPNLAMKEVIDAFISENGWVEDY | both CHIP mutants could transfer xUB to p53, a known CHIP substrate (26), at an efficiency comparable to wt UB transfer by wt CHIP | – |
| xCHIP (CHIP-KB12), C213K, G214D, K215P, S217M, F218R, E219T (protein) MKGKEEKEGGARLGAGGGSPEKSPSAQELKEQGNRLFVGRKYPEAAACYGRAIMQQHEQALADCRRALELDGQSVKAHFFLGQCQLEMESYDEAIANLQRAYSLAKEQRLNFGDDIPSALRIAKKKRWNSIEERRIHQESELHSYLSRLIAAERERELEECQRNHEGDEDDSHVRAQQACIEAKHDKYMADMDELFSQVDEKRKKRDIPDYLKDPIMRTLMREPCITPSGITYDRKDIEEHLQRVGHFDPVTRSPLTQEQLIPNLAMKEVIDAFISENGWVEDY | both CHIP mutants could transfer xUB to p53, a known CHIP substrate (26), at an efficiency comparable to wt UB transfer by wt CHIP | – |
| wt HECT domain of E6AP (protein) MKRAAAKHLIERYYHQLTEGCGNEACTNEFCASCPTFLRMDNNAAAIKALELYKINAKLCDPHPSKKGASSAYLENSKGAPNNSCSEIKMNKKGARIDFKDVTYLTEEKVYEILELCREREDYSPLIRVIGRVFSSAEALVQSFRKVKQHTKEELKSLQAKDEDKDEDEKEKAACSAAAMEEDSEASSSRIGDSSQGDNNLQKLGPDDVSVDIDAIRRVYTRLLSNEKIETAFLNALVYLSPNVECDLTYHNVYSRDPNYLNLFIIVMENRNLHSPEYLEMALPLFCKAMSKLPLAAQGKLIRLWSKYNADQIRRMMETFQQLITYKVISNEFNSRNLVNDDDAIVAASKCLKMVYYANVVGGEVDTNHNEEDDEEPIPESSELTLQELLGEERRNKKGPRVDPLETELGVKTLDCRKPLIPFEEFINEPLNEVLEMDKDYTFFKVETENKFSFMTCPFILNAVTKNLGLYYDNRIRMYSERRITVLYSLVQGQQLNPYLRLKVRRDHIIDDALVRLEMIAMENPADLKKQLYVEFEGEQGVDEGGVSKEFFQLVVEEIFNPDIGMFTYDESTKLFWFNPSSFETEGQFTLIGIVLGLAIYNNCILDVHFPMVVYRKLMGKKGTFRDLGDSHPVLYQSLKDLLEYEGNVEDDMMITFQISQTDLFGNPMMYDLKENGDKIPITNENRKEFVNLYSDYILNKSVEKQFKAFRRGFHMVTNESPLKYLFRPEEIELLICGSRNLDFQALEETTEYDGGYTRDSVLIREFWEIVHSFTDEQKRLFLQFTTGTDRAPVGGLGKLKMIIAKNGPDTERLPTSHTCFNVLLLPEYSSKEKLKERLLKAITYAKGFGML | – | HECT domains of wt E6AP, Nedd4, Smurf1 and Smurf2 can be loaded with wt UB through the wt Uba1-UbcH7 pair |
